Results published in US20110294137A1 (MEDICAL RESEARCH COUNCIL, published 2011).

T1: Rv1827, P9WJA9
T1 chain: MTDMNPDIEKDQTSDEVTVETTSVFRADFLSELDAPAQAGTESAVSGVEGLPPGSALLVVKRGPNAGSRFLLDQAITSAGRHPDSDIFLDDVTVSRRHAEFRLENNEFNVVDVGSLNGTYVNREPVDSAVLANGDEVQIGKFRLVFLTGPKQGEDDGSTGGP

B1: PknB kinase domain (PknB 1-279) (protein)
chain: MTTPSHLSDRYELGEILGFGGMSEVHLARDLRLHRDVAVKVLRADLARDPSFYLRFRREAQNAAALNHPAIVAVYDTGEAETPAGPLPYIVMEYVDGVTLRDIVHTEGPMTPKRAIEVIADACQALNFSHQNGIIHRDVKPANIMISATNAVKVMDFGIARAIADSGNSVTQTAAVIGTAQYLSPEQARGDSVDARSDVYSLGCVLYEVLTGEPPFTGDSPVSVAYQHVREDPIPPSARHEGLSADLDAVVLKALAKNPENRYQTAAEMRADLVRVHNG
B2: wild-type ParM (other)
chain: MLVFIDDGSTNIKLQWQESDGTIKQHISPNSFKREWAVSFGDKKVFNYTLNGEQYSFDPISPDAVVTTNIAWQYSDVNVVAVHHALLTSGLPVSEVDIVCTLPLTEYYDRNNQPNTENIERKKANFRKKITLNGGDTFTIKDVKVMPESIPAGYEVLQELDELDSLLIIDLGGTTLDISQVMGKLSGISKIYGDSSLGVSLVTSAVKDALSLARTKGSSYLADDIIIHRKDNNYLKQRINDENKISIVTEAMNEALRKLEQRVLNTLNEFSGYTHVMVIGGGAELICDAVKKHTQIRDERFFKTNNSQYDLVNGMYLIGN
notes: Unlabelled, without His6 tag (plasmid pJSC1); also called ParM wild-type

Experiments:
Rv1827, P9WJA9 = molecular target: T1, Rv1827, P9WJA9
[1] = molecular target: the molecule itself; assay: right angle light scattering at 340 nm, self-polymerisation, 4 mM ATP

Row | Protein | KM (Rv1827, P9WJA9) | KM value (Michaelis-Menten, initial rate against Rv1827 concentration) (Rv1827, P9WJA9) | kcat (Rv1827, P9WJA9) | kcat (300 µM Rv1827, ATP varied) (Rv1827, P9WJA9) | maximal rate (Rv1827, P9WJA9) | specific activity (Rv1827, P9WJA9) | critical concentration (filament formation, in presence of ATP) [1]
1 | B1 | KM, 20 µM | a KM value of 22 µM | kcat 4.7 min^-1 | kcat, 4.9 min^-1 | a maximal rate of 1.2 µM min^-1 | the specific activity of the PknB kinase domain was calculated for 40 µM ATP as 5.9 s^-1 | –
2 | B2 | – | – | – | – | – | – | 2.5 µM
